# From patent US20260263646A1 (ENLAZA THERAPEUTICS, published 2026)
# Residue numbers refer to the chain shown, from its start.
# B1: C34-TYR (bispecific antibody)
# chain: EVQLVESGGGLVQPGGSLTLSCAASRFMISEYSMHWVRQAPGKGLEWVSTINPYGTTDYAESVKGRFTISRDNAKNTLYLQMNSLKPEDTAVYYCDGYGYRGQGTQVTVSSGGGGSGGGGSGGGGSQVQLQESGGGSVEAGGSLRLSCARSGWPYSTYSMNWFRQAPGKEREAVAGISSTMSGIIFAESKAGQFTISQDNAKNTVYLQMNNLKPEDTAIYYCAARRYFSLSSSSDDFDYWGQGTQVTVSSAAAYPYDVPDYGSLPETGGSPSTPPTPSPSTPP
# notes: Biparatopic tandem of two anti-PSMA VHH
# B2: C35-TYR (bispecific antibody)
# chain: QVQLQESGGGSVEAGGSLRLSCARSGWPYSTYSMNWFRQAPGKEREAVAGISSTMSGIIFAESKAGQFTISQDNAKNTVYLQMNNLKPEDTAIYYCAARRYFSLSSSSDDFDYWGQGTQVTVSSGGGGSGGGGSGGGGSQVQLQESGGGSVEAGGSLRLSCARSGWPYSTYSMNWFRQAPGKEREAVAGISSTMSGIIFAESKAGQFTISQDNAKNTVYLQMNNLKPEDTAIYYCAARRYFSLSSSSDDFDYWGQGTQVTVSSAAAYPYDVPDYGSLPETGGSPSTPPTPSPSTPP
# notes: Tandem of two copies of the same VHH
# B3: C24-101TYR (VHH)
# VHH: QVQLQESGGGSVEAGGSLRLSCARSGWPYSTYSMNWFRQAPGKEREAVAGISSTMSGIIFAESKAGQFTISQDNAKNTVYLQMNNLKPEDTAIYYCAARRYFSLSSSSDDFDYWGQGTQVTVSS
# B4: C24-101FSY (VHH)
# VHH: B3 VHH with Y101X
# modifications: FSY at 101 (X of the entry)
# notes: also called C24-FSY
# B5: C34-FSY (bispecific antibody)
# chain: B1 chain with Y227X
# modifications: FSY at the X of the entry (101 of the C24 part)
# notes: as for B1
# B6: C36-FSY (bispecific antibody)
# chain: B2 chain with Y101X, Y240X
# modifications: FSY at both X of the entry (101 of each C24 part)
# notes: as for B2
# B7: C26-54TYR (VHH)
# VHH: EVQLVESGGGLVQPGGSLTLSCAASRFMISEYSMHWVRQAPGKGLEWVSTINPYGTTDYAESVKGRFTISRDNAKNTLYLQMNSLKPEDTAVYYCDGYGYRGQGTQVTVSS
# modifications: MC-PEG8-VC-PABC-MMAE on the C-terminal Cys (DAR 1)
# B8: C28-101TYR (VHH)
# VHH: B3 VHH
# modifications: MC-PEG8-VC-PABC-MMAE on the C-terminal Cys
# B9: C2-56FSY (VHH)
# VHH: B7 VHH with Y54A, T56X
# modifications: not fully specified; FSY at 56
# notes: plus C-terminal His6
# B10: C2-50FSY (VHH)
# VHH: B7 VHH with T50X, Y54A
# modifications: not fully specified; FSY at 50
# notes: plus C-terminal His6
# B11: C2-53FSY (VHH)
# VHH: B7 VHH with P53X, Y54A
# modifications: not fully specified; FSY at 53
# notes: plus C-terminal His6
# B12: C2-58FSY (VHH)
# VHH: B7 VHH with Y54A, D58X
# modifications: not fully specified; FSY at 58
# notes: plus C-terminal His6
# B13: C2-100FSY (VHH)
# VHH: B7 VHH with Y54A, Y100X
# modifications: not fully specified; FSY at 100
# notes: plus C-terminal His6
# B14: C1-26FSY (VHH)
# VHH: QVQLQESGGGSVQAGGSLRLSCTAPXYTDSNYYMSWFRQAPGKEREWVAGVNTGRGSTSYADSVKGRFTISQDNAKNTMFLQMNSLKPEDTAIYYCAVAACHFCDSLPKTQDEYILWGQGTQVTVSS
# modifications: not fully specified; FSY at 26
# notes: plus C-terminal His6
# B15: C1-108FSY (VHH)
# VHH: B14 VHH with X26G, P108X
# modifications: not fully specified; FSY at 108
# notes: plus C-terminal His6
# B16: C1-111FSY (VHH)
# VHH: B14 VHH with X26G, Q111X
# modifications: not fully specified; FSY at 111
# notes: plus C-terminal His6
# B17: C1-110FSY (VHH)
# VHH: B14 VHH with X26G, T110X
# modifications: not fully specified; FSY at 110
# notes: plus C-terminal His6
# B18: C1-114FSY (VHH)
# VHH: B14 VHH with X26G, Y114X
# modifications: not fully specified; FSY at 114
# notes: plus C-terminal His6
# B19: C1-115FSY (VHH)
# VHH: B14 VHH with X26G, I115X
# modifications: not fully specified; FSY at 115
# notes: plus C-terminal His6
# B20: C1-29FSY (VHH)
# VHH: B14 VHH with X26G, D29X
# modifications: not fully specified; FSY at 29
# notes: plus C-terminal His6
# B21: C1-30FSY (VHH)
# VHH: B14 VHH with X26G, S30X
# modifications: not fully specified; FSY at 30
# notes: plus C-terminal His6
# B22: C1-99FSY (VHH)
# VHH: B14 VHH with X26G, A99X
# modifications: not fully specified; FSY at 99
# notes: plus C-terminal His6
# B23: C1-103FSY (VHH)
# VHH: B14 VHH with X26G, F103X
# modifications: not fully specified; FSY at 103
# notes: plus C-terminal His6
# B24: C1-105FSY (VHH)
# VHH: B14 VHH with X26G, D105X
# modifications: not fully specified; FSY at 105
# notes: plus C-terminal His6
# B25: C3-101FSY (VHH)
# VHH: B3 VHH with Y101X, F102Y
# modifications: not fully specified; FSY at 101
# notes: plus C-terminal His6
# B26: C3-58FSY (VHH)
# VHH: B3 VHH with I58X, Y101D, F102Y
# modifications: not fully specified; FSY at 58
# notes: plus C-terminal His6; tested as cell lysate
# B27: C3-62FSY (VHH)
# VHH: B3 VHH with E62X, Y101D, F102Y
# modifications: not fully specified; FSY at 62
# notes: as for B26
# B28: C3-103FSY (VHH)
# VHH: B3 VHH with Y101D, F102Y, S103X
# modifications: not fully specified; FSY at 103
# notes: as for B26
# B29: C3-107FSY (VHH)
# VHH: B3 VHH with Y101D, F102Y, S107X
# modifications: not fully specified; FSY at 107
# notes: as for B26
# Target: T1, PSMA on LNCaP cells (human, UniProt Q04609 1-750)
# T1 construct: whole, on cells; also called LNCaP (PSMA+)
# T1 sequence (Q04609 whole entry): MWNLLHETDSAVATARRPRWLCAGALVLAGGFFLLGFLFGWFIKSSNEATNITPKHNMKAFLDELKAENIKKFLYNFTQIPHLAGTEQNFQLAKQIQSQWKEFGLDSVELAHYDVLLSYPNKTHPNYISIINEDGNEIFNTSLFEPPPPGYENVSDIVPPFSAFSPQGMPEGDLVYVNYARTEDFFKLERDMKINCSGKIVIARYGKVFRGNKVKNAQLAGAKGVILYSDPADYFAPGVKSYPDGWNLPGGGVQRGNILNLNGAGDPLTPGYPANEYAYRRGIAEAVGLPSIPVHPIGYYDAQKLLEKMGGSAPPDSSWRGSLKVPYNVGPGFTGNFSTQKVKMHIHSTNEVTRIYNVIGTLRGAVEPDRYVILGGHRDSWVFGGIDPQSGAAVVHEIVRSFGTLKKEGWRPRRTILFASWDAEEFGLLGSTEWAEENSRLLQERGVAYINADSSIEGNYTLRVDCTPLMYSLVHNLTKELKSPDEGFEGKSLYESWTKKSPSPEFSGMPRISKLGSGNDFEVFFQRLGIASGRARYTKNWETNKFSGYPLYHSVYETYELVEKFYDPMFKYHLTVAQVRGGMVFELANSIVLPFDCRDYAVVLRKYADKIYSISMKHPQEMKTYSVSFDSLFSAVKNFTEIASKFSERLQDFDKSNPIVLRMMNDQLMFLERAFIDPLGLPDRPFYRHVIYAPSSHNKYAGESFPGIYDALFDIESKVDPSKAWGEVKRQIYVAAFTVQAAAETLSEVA
# Experiment: flow cytometry on LNCaP cells
row,Binder,EC50 [nM]
1,B1,2.3
2,B2,12.3
3,B3,> 500

# Target: T1, PSMA on LNCaP cells
# Experiment: western blot, LNCaP cells, 100.0 nM, 6 h
row,Binder,Crosslinked PSMA (Total PSMA %) [%]
1,B4,71
2,B5,87.1
3,B6,87.9

# Target: T1, PSMA on LNCaP cells
# Experiment: western blot, LNCaP cells, 10.0 nM, 1 h
row,Binder,Crosslinked PSMA (Total PSMA %) [%]
1,B4,4.6
2,B5,56.9
3,B6,58.7

# Target: PSMA on PC3pip cells (UniProt Q04609 1-750, limits assumed)
# Sequence (Q04609 whole entry): as above
# Experiment: cell-based or functional assay
row,Binder,"IC50 PC3pip (M), cell viability by CellTiter-Glo after 4 days [M]"
1,B7,3.36e-09
2,B8,8.47e-08

# Target: T1, PSMA on LNCaP cells
# Experiment: western blot, LNCaP cells, 1000.0 nM, 1 h
row,Binder,Crosslinked PSMA (Total PSMA %) [%]
1,B4,41.4
2,B5,70.4
3,B6,90.3

# Target: T1, PSMA on LNCaP cells
# Experiment: western blot, LNCaP cells, 1000.0 nM, 6 h
row,Binder,Crosslinked PSMA (Total PSMA %) [%]
1,B4,75.8
2,B5,89.9
3,B6,92

# Target: T1, PSMA on LNCaP cells
# Experiment: western blot, LNCaP cells, 1.0 nM, 1 h
row,Binder,Crosslinked PSMA (Total PSMA %) [%]
1,B4,0
2,B5,14.8
3,B6,13.8

# Target: T1, PSMA on LNCaP cells
# Experiment: western blot, LNCaP cells, 0.1 nM, 6 h
row,Binder,Crosslinked PSMA (Total PSMA %) [%]
1,B4,0
2,B5,3.2
3,B6,2.8

# Target: T2, PSMA (commercial, Sino Bio cat #15877-H07H) (UniProt Q04609 44-750)
# T2 construct: also called receptor
# T2 sequence (Q04609 44-750 limits assumed): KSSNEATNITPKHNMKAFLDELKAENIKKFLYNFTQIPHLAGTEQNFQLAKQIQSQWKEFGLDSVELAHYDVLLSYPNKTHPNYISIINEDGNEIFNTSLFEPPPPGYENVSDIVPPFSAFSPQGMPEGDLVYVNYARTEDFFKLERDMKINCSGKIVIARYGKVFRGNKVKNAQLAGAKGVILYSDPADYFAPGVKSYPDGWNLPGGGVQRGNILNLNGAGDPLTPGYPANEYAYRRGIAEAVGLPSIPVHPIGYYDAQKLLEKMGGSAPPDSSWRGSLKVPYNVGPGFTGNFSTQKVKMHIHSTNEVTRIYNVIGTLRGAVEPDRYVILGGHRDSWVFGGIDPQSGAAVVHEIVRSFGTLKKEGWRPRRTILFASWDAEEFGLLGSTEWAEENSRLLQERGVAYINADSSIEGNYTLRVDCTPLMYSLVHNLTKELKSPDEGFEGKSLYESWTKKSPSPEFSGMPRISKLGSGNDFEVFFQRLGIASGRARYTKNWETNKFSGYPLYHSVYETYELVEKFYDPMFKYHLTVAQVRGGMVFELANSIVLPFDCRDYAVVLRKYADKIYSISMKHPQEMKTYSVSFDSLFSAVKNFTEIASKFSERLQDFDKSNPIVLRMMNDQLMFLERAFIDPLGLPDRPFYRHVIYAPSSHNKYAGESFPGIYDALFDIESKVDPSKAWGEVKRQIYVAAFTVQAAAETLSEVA
# Experiment: SDS-PAGE, 37C, ~8:1 sdAb:PSMA
row,Binder,crosslinking efficiency [%]
1,B9,< 50
2,B10,> 50
3,B11,> 50
4,B12,> 50
5,B13,< 50

# Target: T1, PSMA on LNCaP cells
# Experiment: western blot, LNCaP cells, 1.0 nM, 6 h
row,Binder,Crosslinked PSMA (Total PSMA %) [%]
1,B4,2.4
2,B5,21.5
3,B6,23.7

# Target: T1, PSMA on LNCaP cells
# Experiment: western blot, LNCaP cells, 100.0 nM, 1 h
row,Binder,Crosslinked PSMA (Total PSMA %) [%]
1,B4,28.5
2,B5,63.3
3,B6,82.7

# Target: T2, PSMA (commercial, Sino Bio cat …)
# Experiment: SDS-PAGE, overnight 37C, ~7:1 sdAb:PSMA
row,Binder,crosslinking efficiency [%]
1,B14,< 50
2,B15,< 50
3,B16,< 50
4,B17,< 50
5,B18,< 50
6,B19,< 50
7,B20,> 50
8,B21,> 50
9,B22,< 50
10,B23,< 50
11,B24,< 50

# Target: T1, PSMA on LNCaP cells
# Experiment: western blot, LNCaP cells, 10.0 nM, 6 h
row,Binder,Crosslinked PSMA (Total PSMA %) [%]
1,B4,28.4
2,B5,78.7
3,B6,74.2

# Target: T1, PSMA on LNCaP cells
# Experiment: western blot, LNCaP cells, 0.1 nM, 1 h
row,Binder,Crosslinked PSMA (Total PSMA %) [%]
1,B4,0
2,B5,0
3,B6,3.8

# Target: T2, PSMA (commercial, Sino Bio cat …)
# Experiment: SDS-PAGE, lysate + PSMA, 3 h 37C
row,Binder,crosslinking efficiency [%]
1,B25,< 50
2,B26,> 50
3,B27,> 50
4,B28,< 50
5,B29,< 50
